The target of the assay is T1, human Claudin 18.2 (CLDN18.2) expressed on cells (human, UniProt P56856-2 1-261).
T1 construct: whole, on cells; also called CLD18.2; CLD18A2
Briefly: FACS, hybridoma supernatant of the first fusion, AF 647 anti-IgG. (In general: In flow cytometry, cells or beads pass a laser one at a time.)

B1: 30B5 (mouse hybridoma subclone antibody) (antibody, V domains shown)
VH: EVKLEESGGGLVQPGGSMKLSCVASGFTFSNYWMNWVRQSPEKGLEWVAEIRLKSKNYATHYAESVKGRFTISRDDSIGSVYLQMNNLRAEDTGIYYCARGHYGTNYGDYWGQGTSVTVSS
VL: DIVMTQSPSSLTVTAGEKVTVSCKSSQSLFNSGNQKHYLTWYQQKPGQPPKLLIYRASTRESGVPDRFTGSGSGTDFTLTIRNVQAEDLAVYYCQNDYSFPLTFGAGTKLELK
notes: also remade as chimeric antibody with human IgG1 and kappa
Take B1: the binding result is on record as “binds”.

For the origin of these results see patent publication US20200040101A1 (ASKGENE PHARMA, published 2020).
